Target: VASP EVH1 domain (wild type) (human, UniProt P50552 2-115)
Assay: NMR titration

Kd: 32.2 ± 1.7 µM
B1: Zyxin proline rich region, residues 41-140 (domain or fragment, human, UniProt Q15942 41-140, looked up)
chain: PGDSEPPPAPGAQRAQMGRVGEIPPPPPEDFPLPPPPLAGDGDDAEGALGGAFPPPPPPIEESFPPAPLEEEIFPSPPPPPEEEGGPEAPIPPPPQPREK
